According to a protein production outcome set (Wang et al. 2014):

Assay: label from the status in PepcDB records

Sequence	protein production
MTSNERILQPFTLPNGTELKNRLLMAPMTTCTGYFDGTVTSELVEYYRARAGSIGTIIVECCFIDDYGLAFPGAIGIDNDEKIAGLAKIAEAIKAEGSKAILQIYHGGRMVDPQLIGGRQPVAPSAIAAPREGAAMPRALSGEEVEGMIAKFGDGVRRAILAGFDGVEIHGANTYLIQQFYSPNSNQRDDEWGGSRDNRARFPLAVLDITHKMARQYADDAFIIGYRFSPEEMEVPGIRFDDTMYLLEKLAARGVDYLHFSVGATLRPSIVDTSDATPLIEKYCAMRSDTLAQVPVMGVGGVVNAADAEQGLDHGYDLIAVGRACIAYPDWASRIAAGEELELFIDSTQREALHIPEPLWRFSLVEAMIRDMSMGDAKFKPGMFVETVHDDANELVINVSLENDHIADIELAASPVQTVEFTTSFEEIRERILTANTPHVDAISGATSQSEAVKKAVAKAMLKSSKALAAEEGGNDAAPKSYDVVVVGSGGAGLAAAIQAHDEGASVLIVEKMPTIGGNTIKASAGMNAAETRFQRVKGIEDSKELFYQETLKGGHNKNNPQLLRRFVENAPQAIEWLADRGIMLNDITTTGGMSIDRTHRPRDGSAVGGYLISGLVRNITKRGIDVLLDTSVEEILMRGDEVSGVRLINDEKEVIEVQTKSIVVATGGFSANSAMVVKYRPDLEGFVTTNHKGATGSGIALLERIGAGTVDMGEIQIHPTVEQQTSYLISESIRGGGAILVNQQGNRFFNEMETRDKVSAAIIALPEHYACIVFDEHVRAKNKAADEYIAKGFVTSASSPRELAEKLGMDYHAFLATLECYNGAVEKQHDEQFGRTTALRAPINEGPFHAIRIAPGVHHTMGGVTINTDGEVLNVAQQPICGAYAAGEVVGGIHGGNRIGGNAVADIIIFGTLAGHQAAKRARG	failed
MTSSEQPRTYWLEHAWLGTHVEPGVALDVRDGRITAVNQGVATPPPGAGILRGLTLPGLANAHSHAFHRALRGTVQVGSGTFWTWREVMYSVADRLTPDTYHALARAVYAEMALAGITAVGEFHYVHHAPGGTPYADPNAMGEALIEAAAEAGVRITLLDTCYLSSGFGEPPNTHQRRFSDGTADAWAERCSVLKERDHARIGAAIHSVRAVPADQLATVAQWAEERRAPLHVHLSEQTAENDACRQAHGRTPTRLLADHGVLGARTTGVHNTHLTDEDIALLGGSRTGTCMCLTTERDLADGIGPAAALQRAGSPLSLGSDSHAVVDLLEEARAMELNERLRTRARGHWTAAALLRAATADGHAALGWDDTGRIEAGARADLATIALDSVRTAGPLPRLGAETAVFAATAADVRHTVVGGRHVVRDGAHTLVPDVPQALARAVEALRA	failed
MTSSMLFNITTFTYLVSMLAFFAFLASRNRHLGMAGSLISYFGFFVHTAAILLRWKESYDIGHGHAPLSNLYESVVFFAWTIVLIFGIIDLKYKYRVVGAFVMPFALLGMAWAQLTLNSGIEPLVPALQSNWLLYHVVTCFLGYAAFAVACGISIMYLIKAGKEDSSQSAQAGGIISMFPPTKILDDLNYKAIMIGFPLLTLGIITGAAWANYAWGTYWSWDPKETWSLIVWFVYAAFLHARFTRGWVGKRAAILSIVGFAATIFCYLGVNLLLSGLHSYGGG	failed
MTSSSQRLALLEAVVEQSFNAVLITDANLANGGPLIVYVNPAFCTMTGYTAEELIGLSPRILQGADTDPQVIERLRQCLSERLFFEGSTVNYRADGSPYVVEWKITPVRDDAGQVCNFVSVQQNISPRIRAEREQHLLAQALNAAFDPIIITDRNSTIVFANEAFQLITGYSAPEIIGQNPRMLRSGKHDALFYAQFNESLASGEPFRTTFINKRKDGSLFYAEHSISPLRNVEGAMTHYVSISQDVTTRLGREQKLLEIAHSDTLTGLDNRRAAEHTLERLINTARMAGKPFSFIICDIDHFKSVNDRYGHPAGDSVLKSVAAILKHRIRAFDVAARWGGEEFLILVPDSSLKQAAELAERVRKGVESLEIPEAGPVTISLGVAELSPGETAASLIQRADKVLYQAKRLGRNRVEIAQADDPAY	failed
MTSTFLLEIGTEELPADFARQALDQLQDRVGRDLLDSRLDHKSVQVLGTPRRLVVRVHGLADRQPDLEEDQKGPPIAQAFKDGVPGPAAIGFSKRCGVDPSQLEVRNTPKGECVFASVRTEGQNSVDLLQELIPAWINGLQGRRFMRWGTGSQRFSRPIRWLLALKGVDLIPVEIPGADPPVRSDRFSRGHRLHGDQPLPIDTAEDYDDTLAAAGVIVDRQQRAALIRSQLDASADQLNGLPDCPESLFEELVDLVESPRLLQGSIAERFLSLPPEVIITVMQAHQRYVPLKVPEVTPDPLQLEATVVLQRDFLLVGNGLEAADALITRGNERVLAARLADAEFFLSVDRRQPSSARREALDRVTFAEGLGSLLDRCQRIERTARQLVDQLNLDAHQGEAAIRAAHFCKHDLVSQMVGEFPELQGLMGGKYLLEEGEPTEVALAVVEHYLPRGAGDQLPSSDAGAVVALAERLELLLSIFAKGERPSGSSDPYALRRAGNGLLQIVWDRGWRLDLSRFLGSAVEDWAALFPEFAIDSSALHQDLCQLLRQRIVSQLEDEGFVPDLVQAVSAESVAT	failed
MTSTSITAVEYQSKRLESRLLKETREYVIALPEGYAQSLEAYPVVYLLDGEDQFDHMASLLQFLSQGTMPQIPKVIIVGIHNTNRMRDYTPTHTLVLPSGNKGNPQYQHTGGAGRFLDFIEKELAPSIESQLRTNGINVLVGHSFGGLVAMEALRTDRPLFSAYLALDTSLWFDSPHYLTLLEERVVKGDFKQKQLFMAIANNPLSPGFGVSSYHKDLNLAFADKLTKLAPKGLGFMAKYYPEETHQSVSHIGLYDGIRHLFKDFAIDIYSDSFSKQQVIDQYGVLSERFGHKVTPSQQYLEQLIQYSDRQQLTERKQMLEGLRQHFAKD	not failed
MTSYPQQPQQTEQYGVQAGEPPLWAPYYGAPIGAAIRRFFKKYTAFSGRASRSEYWWVALALGVIGIVLQILTGILGAAGSTTTSSGTVPGPGAVVGLILIFVFYLAVLIPSIALLVRRLHDGNFSGWLALLGLIPFVGGLAILVFALLPSNPAGQRFDQPTA	failed
MTTAQMSVYFFLQAAAILLVCRLVGMLAKRLGQPQVVGEMIAGVMLGPSLFGLLAPGAQAALFPKQTMDVLYVFAQFGVGMYMFLVGTDFRSDHFRARYRSAMSVSLAGIAVPFLLAFAMCPWLINVEGLFSEKAKLMEASLFLGAAIAITAFPMLARIIHERGLATSPLGTLALTAGAFDDASAWCILAVVLASFGGSWGSAYLAIGGGIGYAVFMIFVGRHLLKRLADHVVPGQPLSNSVLAVVLILFCVSAWAMDAIGIHAVFGGFLLGVCLPRGALTEKLREMLQPFVVVLLLPMFFTYSGLKTQLSVLLQPQIMLAGVAILAASFIGKGVACWAAARTTGENNRDAMAIGALMNARGLMELIIINIGLQAGVIEQGLFSVLVLMAILSTLMATPLFNWIMRRHAHVSDAVPSLQSR	failed
MTTARPAKARNEGQWALGHREPLNANEELKKAGNPLDVRERIENIYAKQGFDSIDKTDLRGRFRWWGLYTQREQGYDGTWTGDDNIDKLEAKYFMMRVRCDGGALSAAALRTLGQISTEFARDTADISDRQNVQYHWIEVENVPEIWRRLDDVGLQTTEACGDCPRVVLGSPLAGESLDEVLDPTWAIEEIVRRYIGKPDFADLPRKYKTAISGLQDVAHEINDVAFIGVNHPEHGPGLDLWVGGGLSTNPMLAQRVGAWVPLGEVPEVWAAVTSVFRDYGYRRLRAKARLKFLIKDWGIAKFREVLETEYLKRPLIDGPAPEPVKHPIDHVGVQRLKNGLNAVGVAPIAGRVSGTILTAVADLMARAGSDRIRFTPYQKLVILDIPDALLDDLIAGLDALGLQSRPSHWRRNLMACSGIEFCKLSFAETRVRAQHLVPELERRLEDINSQLDVPITVNINGCPNSCARIQIADIGFKGQMIDDGHGGSVEGFQVHLGGHLGLDAGFGRKLRQHKVTSDELGDYIDRVVRNFVKHRSEGERFAQWVIRAEEDDLR	not failed
MTTDTGELVRTNQGTSSEVSSETGTAVQTLSVLYGSQTGNAEFLASKIVDKANGQGYAAELMSLDMLTPQEAARKDRLLIVTATHDNGHMPDNAQPFWDQLQSAGSDLFKDVPFAVLAIGDSMYEDFCKAGSDLDERLGKLGGKRILDRLDCDVDYDLTSGKWIRGMLETFKTVVPKKRDNNPEDSTVPGANPAEQPKGTRREPDTATVVEARLLSAPESEKEVWHYELEVSGDSRNYRPGDSLAVIPTNNIELVEDLLGFLGLAGSEVFGEDGKTVRETLQNDYELRLPHLGIVAWLVENLAPDHPVRNLVESGDRNALEDWLWGRDMLDVLQETRTTDVDPGEFLSMLRPLQHRSYSIASSPLADGDRVHLTVSTVQYETAGRRHSGACSGFLQSAAQTKTTIKVFPLPAHEFHLPHDNSADVIMVGPGVGVAPFRGFLRDREVSQARGRNWLFFGDRHEKPSWLYQEEMEELQSNGVLNRLSVAFSRDQQGKVYVQDRIREEGDGIFAWLSGGASVYVCGGKQIAPDIDEALLAVLRSHGAMTPEKAHDYLQSLKSEGRYVKDVY	failed
MTTIDIIILIIIGAGVVAGFMKGFIRQLASILGLVVGLLAAKALYATLAEKLCPAVTDSMTVAQVLAFIVIWIAVPLIFTLVASLLTKAMEAISLGWLNRWLGSGLGALKFLLLTSLVICVIEFIDSDNKLISATKKSESLLYYPMETFAGIFFPAAKNITQQYILDNKDATRRTQ	failed
MTTKPVLVIGGTGKTGRRVVRLLRERGVPARPASRSGEVRFDWLDESTWGPALDGASGVYIVQNDGDPRTRALVRTAVASGVQRLALLSARGVDTPGYYGEDPATSEAFLEGEAAVRESGVDWTVLRPGWFAQNFDEGFFNEGVLAGELRLPAGDGAASWIDVEDIAAVAVAALTEDGHAGRTYELSGPAPLPLAEVLSVIEAAAGRKVRYTPLTTEEFIAELGAQGIPAEEAGLWAAALYPVERGFESKVSDGVRQALGRAPRTFAEYAEAAVAEGAWRD	failed
MTTLEAFAKARSEGRAALIPYLTAGFPSREGFLQAVEEVLPYADLLEIGLPYSDPLGDGPVIQRASELALRKGMSVQGALELVREVRALTEKPLFLMTYLNPVLAWGPERFFGLFKQAGATGVILPDLPPDEDPGLVRLAQEIGLETVFLLAPTSTDARIATVVRHATGFVYAVSVTGVTGMRERLPEEVKDLVRRIKARTALPVAVGFGVSGKATAAQAAVADGVVVGSALVRALEEGRSLAPLLQEIRQGLQRLEANPGLKESSKKPLP	not failed
MTTLSTKQKQFLKGLAHHLNPVVMLGGNGLTEGVLAEIENALNHHELIKVKVAGADRETKQLIINAIVRETKAAQVQTIGHILVLYRPSEEAKIQLPRK	not failed
MTTLVLRAKRWLYLLHRWMGVGLCLLFVLWFASGVVMMYVGYPNLTPAERLAHLPGLDAAQVRLGPAQALRAAGLEQAAEIRLAASRAGQPFYAVVPLAGGRTLRVDAASGQLAGRATPAQARASALAYFGARHAAREGGLVSEDAHTHTRTLDEHRPLYVFEMDDPARTRLYVSSSTGEVVRDAPRLERGWNYVGAWLHWLYPLRGAYWHDIVVWLSVLGVALTVSGTVVGLWRWRFARPYASGSRSPYRERFMRWHHIAGLLFAATTLTWIFSGLMSMNPWQVFGTRATQLDRAAYRGGPLQADNLPAGPAVAMPARKLVWTRVAGQTLLQVYGAAGAPALRTADGAAPRTLAPATLGVALGRLLPSAAPPRIEVLDGYDSYYYARAPHTMLGHVEKPLPVWRVVYDDPRGTWLHVDPRSGEILGSLDRPRRVSRWLFAFLHSWDWPPLLQRRPAWDAVLIVLSLGGLLLSGAGVVIGWRRVGRKLR	failed
MTTLVPLNRIDSQKIEDLLDIGFGKDRHGRTAYRLRQGVSAIPELSFAAVDGDILQGIIQCWPIRLSCLNGKKLPMILLGPVAVHPDYQGHGIGQTLVQHSLDVADSSDITGHDAVMLIGDPEYYNRFFGFSDEETGDWRLPGPVEKRRLLARLTSPRL	failed
